The target of experiment [1] is T1, MDM2 (In-house, 41 kD) (UniProt Q00987 1-138, limits assumed).
T1 construct: Construct used in the FP assays is described only as in-house, 41 kD; also called HDM2
Kind of experiment: competitive fluorescence polarization vs FAM-labeled linear peptide; grade of Ki (MDM2); scale in paragraph 664: ++++ = <=10 nM.

For experiment [2], the target named is T1, MDM2 (In-house, 41 kD). Kind of experiment: competitive fluorescence polarization vs FAM-labeled linear peptide; grade of IC50 (MDM2); scale in paragraph 664: ++++ = <=10 nM.
Experiment [3] concerns the target T2, MDMX (In-house, 40 kD) (UniProt O15151 1-134, limits assumed).
T2 construct: Construct used in the FP assays is described only as in-house, 40 kD; also called MDM4
T2 sequence (looked up): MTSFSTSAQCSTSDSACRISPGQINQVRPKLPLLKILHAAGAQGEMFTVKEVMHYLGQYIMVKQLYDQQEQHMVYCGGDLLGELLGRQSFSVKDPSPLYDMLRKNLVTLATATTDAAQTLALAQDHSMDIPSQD
As to the kind of experiment: competitive fluorescence polarization vs FAM-labeled linear peptide; grade of IC50 (MDMX); scale in paragraph 664: ++++ = <=10 nM. How it is done:
(§1) The assay is performed according to the following general protocol: 1. Dilute MDMX (In-house, 40 kD) into FP buffer (High salt buffer-200 mM Nacl, 5 mM CHAPS, pH 7.5.) to make 300 nM (2×) working stock solution. 2. Add 20 µl of 300 nM (2×) of protein stock solution into each well of 96-well black HE microplate (Molecular Devices) 3. […] Then, dilute from 100 µM to 10 µM with water (dilution 1:10) and then dilute with FP buffer from 10 µM to 40 nM (dilution 1:250). This is the working solution which will be a 10 nM concentration in well (dilution 1:4). […] 4. Make unlabeled peptide dose plate with FP buffer starting with 5 µM (final) of peptide and making 5 fold serial dilutions for 6 points using following dilution scheme. 5. Dilute 10 mM (in 100% DMSO) with DMSO to 5 mM (dilution 1:2). Then, dilute from 5 mM to 500 µM with H_2O (dilution 1:10) and then dilute with FP buffer from 500 µM to 20 µM (dilution 1:25). Making 5 fold serial dilutions from 20 µM (4×) for 6 points. 6. Transfer 10 µl of serial diluted unlabeled peptides to each well which is filled with 20 µl of 300 nM of protein. 7.

The target in experiment [4] is T2, MDMX (In-house, 40 kD). As to the kind of experiment: competitive fluorescence polarization vs FAM-labeled linear peptide; grade of Ki (MDMX); scale in paragraph 664: ++++ = <=10 nM. The method, then: as §1
For experiment [5], the target named is T1, MDM2 (In-house, 41 kD). Kind of experiment: competitive fluorescence polarization, Ki (MDM2).
For experiment [6], the target named is T2, MDMX (In-house, 40 kD). As to the kind of experiment: competitive fluorescence polarization, Ki (MDMX). How it is done: as §1
The target in experiment [7] is T1, MDM2 (In-house, 41 kD). Kind of experiment: competitive fluorescence polarization vs FAM-labeled linear peptide; grade of IC50 (MDM2); scale in paragraph 664: +++ = >10 and <=100 nM.
Experiment [8] addresses T2, MDMX (In-house, 40 kD). Kind of experiment: competitive fluorescence polarization vs FAM-labeled linear peptide; grade of IC50 (MDMX); scale in paragraph 664: +++ = >10 and <=100 nM. The method, then:
as §1

Experiment [9] deals with T1, MDM2 (In-house, 41 kD). As to the kind of experiment: competitive fluorescence polarization vs FAM-labeled linear peptide; grade of Ki (MDM2); scale in paragraph 664: ++ = >100 and <=1000 nM.
Experiment [10] deals with T2, MDMX (In-house, 40 kD). As to the kind of experiment: competitive fluorescence polarization vs FAM-labeled linear peptide; grade of Ki (MDMX); scale in paragraph 664: +++ = >10 and <=100 nM. The method, then:
as §1

Bridge positions count the residues as written; N and C are the ends. Square brackets hold non-standard residues; d marks the D form. $4rn6 = Alpha-Me R-azide 1,4 triazole (6 carbon), forms a triazole cross-link with a second residue in the same molecule; $4a5 = Alpha-Me alkyne 1,4 triazole (5 carbon), forms a triazole cross-link with a second residue in the same molecule; $5rn6 = Alpha-Me R-azide 1,5 triazole (6 carbon); $5a5 = Alpha-Me alkyne 1,5 triazole (5 carbon); Cba = N[C@@H](CC1CCC1)C(=O)O

T1 sequence (Q00987 1-138 limits assumed): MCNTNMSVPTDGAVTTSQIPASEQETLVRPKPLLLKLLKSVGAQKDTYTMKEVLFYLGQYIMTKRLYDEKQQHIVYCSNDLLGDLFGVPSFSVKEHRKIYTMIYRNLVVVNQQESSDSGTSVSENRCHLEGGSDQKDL

B1: SP-449 (peptide)
peptide: LTFXAYWAQLXAAXA
modifications: N-terminal acetyl (Ac); position 4 = $4rn6 (alpha-Me R-azide 1,4 triazole, 6 carbon) crosslinked to position 11 = $4a5 (alpha-Me alkyne 1,4 triazole, 5 carbon); position 14 = Nle (norleucine); C-terminal amide (NH2)
notes: Triazole-crosslinked macrocycle of Formula I; also called Ac-LTF$4rn6AYWAQL$4a5AANleA-NH2
With B1, the Ki with MDM2 (In-house, 41 kD) [1] is no more than 10 nM; with MDMX (In-house, 40 kD) [4], no more than 10 nM. For the same molecule, the IC50 with MDM2 (In-house, 41 kD) [2] was no more than 10 nM; with MDMX (In-house, 40 kD) [3], no more than 10 nM.

B2: SP-459 (peptide)
peptide: Ac-LTA[$5rn6]EYWAQ[Cba][$5a5]SAA-NH2
modifications: triazole 4-11
notes: also called Ac-LTA$5rn6EYWAQCba$5a5SAA-NH2
Turning to B2, the Ki in the experiment with MDM2 (In-house, 41 kD) [5] is greater than 1000 nM; with MDMX (In-house, 40 kD) [6], greater than 1000 nM.

B3: SP-460 (peptide)
peptide: Ac-LTA[$4rn6]EYWAQ[Cba][$4a5]SAA-NH2
modifications: triazole 4-11
notes: also called Ac-LTA$4rn6EYWAQCba$4a5SAA-NH2
With B3, the inhibition constant Ki is greater than 1000 nM with MDM2 (In-house, 41 kD) [5] and greater than 1000 nM with MDMX (In-house, 40 kD) [6].

B4: SP-916 (peptide)
peptide: LTFCAYWAQLCAAXA
modifications: N-terminal acetyl (Ac); position 4 = %cs7 (alpha-methyl-D-cysteine) connected by an i to i+7 seven-methylene bis-thioether crosslinker to position 11 = %c7 (alpha-methyl-L-cysteine); position 14 = Nle (norleucine); C-terminal amide (NH2)
notes: Thioether-crosslinked macrocycle of Formula II; also called Ac-LTF%cs7AYWAQL%c7AANleA-NH2
Consider B4, for which the Ki with MDM2 (In-house, 41 kD) [1] was no more than 10 nM; in the experiment with MDMX (In-house, 40 kD) [4] it was no more than 10 nM. Also, the IC50 with MDM2 (In-house, 41 kD) [7] fell in the range of 10 to 100 nM; in the experiment with MDMX (In-house, 40 kD) [8] it was 10 to 100 nM.

B5: SP-450 (peptide)
peptide: Ac-LTF[$4rn6]AYWAQL[$4a5]AAAAA[dA]-NH2
modifications: triazole 4-11
notes: Triazole-crosslinked macrocycle of Formula I; also called Ac-LTF$4rn6AYWAQL$4a5AAAAAa-NH2
As for B5, the Ki in the experiment with MDM2 (In-house, 41 kD) [9] was in the range of 100 to 1000 nM.

B6: SP-917 (peptide)
peptide: LTFCAYWAQLCAAAAAA
modifications: N-terminal acetyl (Ac); position 4 = %cs7 (alpha-methyl-D-cysteine) connected by an i to i+7 seven-methylene bis-thioether crosslinker to position 11 = %c7 (alpha-methyl-L-cysteine); position 17 = D-alanine (a); C-terminal amide (NH2)
notes: Thioether-crosslinked macrocycle of Formula II; also called Ac-LTF%cs7AYWAQL%c7AAAAAa-NH2
B6: the inhibition constant Ki with MDM2 (In-house, 41 kD) [1] is no more than 10 nM; with MDMX (In-house, 40 kD) [10], 10 to 100 nM. Further, the IC50 fell in the range of 10 to 100 nM with MDM2 (In-house, 41 kD) [7] and 10 to 100 nM in the experiment with MDMX (In-house, 40 kD) [8].

(Values after patent US8987414 (AILERON THERAPEUTICS, dated 2015).)
